Test results published in a protein production outcome set (Wang et al. 2014).

Test: label from the status in PepcDB records
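Also: failed if final PepcDB status was selected cloned or expressed and not failed if soluble or beyond.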

Sequence	protein production
MIKLIYKPLWLILLIFFSLKAIAEDHYPTAPSPFYYVSDYTKTLNQQEWRTLEDALINNRSKTSSQIIVVMIPSTDGEEIARYAHNLFNKWGIGRVKHNENNGVLLLIAKNDRKLFIATGRGLESALPDAIAATIIRHHITPYFKQNLYAEGIASGLSAIMAAINGEFAAYDEYQSSNNQTLDGFFFFLFAAFVIFMMFRPTRNSQYISRSNTKPFQQILRHSRYHHDTSRDLYRGGSGDSFGGGSSGGGGAGGSWLEHHHHHH	failed
MTSPASCSPPNEKRTGSPFPPESRSLPSTMEMTMNTIFRPAPHPLPDAPFYTPLGNECVLFESAWVRQLPLLLKGPTGCGKTRFVSHMAAKLGLPLSTISCHDDLAAADLTGRYLLKGGETVWMDGPLTRSVRQGGICYLDEIVEARKDVAVVLHPLTDDRRILPLERTGEVLEAPSGFMLVVSYNPGYQNLLKSLKPSTRQRFVAIEFDFLPKEQEIAVVSHESGLDARDVEPLVDLAHRLRGLKGHDLEEGVSTRLLVYCASLIDTGLPARQAVRATMIEPLTDEPDVKAALHEVADAIIRLEHHHHHH	failed
MALKLGVIGTGAIGQDHIRRCSKTLVGSQVVAVTDINLEQAANVVRDLGIGAEVYADGHALIAAPDVEAVLVCSWGPSHEEYVLAAIAAGKPVFCEKPLAVTAEGCRHIVEAEIASGRRLVQVGFMRPYDQGYRALKSVIDSGQIGEPLMLHCAHRNPRVGENYKTDMAITDTLIHELNVLRWLLNDDYVSVQVVFPRKSGKALAHMKDPQIVMLETARGTRIDVEVFVNCQYGYDIQCEVVGESGIARLPEPSQVQLRREAKLSNAILMDWKDRFIAAYDVELQDFIDGVKAGTIYGPSAWDGYAAAVAADACVLAQNNGAVVPITLAMRPAFYA	failed
MFKIQEVRELIKLIDSSNIDEFEYKKDGTTIKMKKRGNEVVAVQAPVAKQAVQPVAPVEVETTVAAAQVEVPKQEEKKAVQNENLHKITSPMVGTFYSSSSSSPDTPPYVSVGDRVSKDSIVCIVEAMKLFNEIDADVDGEIVEILVNNGQLVEYGQPLFLVKA	failed
MVRETYALLTGLFVVILGSALIGIALVLGDYGTERDVYVVSTQGAVSGLNPESLVIFRGVRAGKVASISFAPHDPRTILVRIEVDKGLPITRGTYATLRVQPLTGLAQIDLSDEGNDPEPLRTDPRNPANIPLRPSLLDKLTGSGSDILTQIAQLTSRLNALLDDGNRQRIAHTLESLDTAADELVRLERYIEEGLERIPILDGRLRQALADHSAMARDVRETSRQVRALSESAQKVVDIGAAASDTLIRSRLPELDALIDDAAHTAASLRRLSKTLERDPQTLLLGPAPGLPGPGEPGFQEPK	failed
MSDFVNGFWSYFIGIIAIGGIVWCVWLLYSQRRWLSTRPAGGVVEDTGHVWDGDLTELNNPVPRWWTWMYLLTCVFALGYLVLFPGVGSYQGTLGYTSVGEVKQKQAELAERVKPVYERFGGMTPEQLVADAPAREIGQRLFLNTCAQCHGSDAKGSTSFPNLTDGDWLYGGTPEIIAETIAKGRHGVMPPWKGVIDPRMAGDIAHYVRSLSGLAVDPVRVFRGKREFANYCVACHGVDAKGNQALGAPNLTDDVWLYGSSEASIVRTILDGRDNRMPAHEEVLTPEQIKLLSAWVWGLSNQAPAKAAEAAR	failed
MSESCILFFVKYPEPGKVKTRLGEVVGNDKAAMLYRHFVQDMLQGLARLHADLHICYVPGDADLPEKFKAWLGPQHMFAAQQGLDLGERMKHAMQKAFDDGYDRVVLMGSDIPDYPCELVQKALNDLQHYDAAIGPAFDGGYYLIGFRKDSFCPDVFDGIRWGEADVYQPTVEKMRRARLEVLQLPDWNDVDTVWDLNVLYRTNKNSSFRRSSTYALLRENDALIRQYDIDLPGMAPVEKE	not failed
MDESKKISLGQFFTPTHIVKYMIGLMTKNKNASILEPSSGNGVFLDSLIQLGYTNLTSYEIDGDIISHPFVINSSFITSYDKPQYDSIIGNPPYVRWKNLSELQKKELKDNSIWKMYCNSLCDYFYIFIIKSILQLKVGGELIFICPDYFFSTKNAEGLRKFLINNGSFEKIILFNESKVFHGVSSSVVIFKYIKGKNIDNINIINIDSKSPIKSEDIE	failed
MDLDYGGVPLWINRFLGEPSVLTLKDRIDPGWYRAVNTQSCPLECDCPIQWPTAIYCDHRGLNQLPSGLPFRLQYLFLQGNNITSLGSRAFDNTTYLRWLILDHNELLSEQLDNVLFSSLTRLVNLFINHNNLTKVPAGLPSGLKQLRLAYNHIEKISEGDFQNLDSLTLILLQGNRLKTIEEGDFKGLGALNLLDLSHNFLDTFPKHLPPSVQQLYLSNNSLTGLSENSLHAFSGLRYLRLGHNKLRNERLDPGAFNLTSLVELDLSYNRLTEIPSVPITLQYLYLEVNHIQEFNVSSFCRTVGPTSYSRMKILRLDGNKLEYHKLPPDWVFCLRVLHNIYI	failed
MRIGIISVGPGNIMNLYRGVKRASENFEDVSIELVESPRNDLYDLLFIPGVGHFGEGMRRLRENDLIDFVRKHVEDERYVVGVCLGMQLLFEESEEAPGVKGLSLIEGNVVKLRSRRLPHMGWNEVIFKDTFPNGYYYFVHTYRAVCEEEHVLGTTEYDGEIFPSAVRKGRILGFQFHPEKSSKIGRKLLEKVIECSLSRR	not failed
MRHFDASQPLRVAVLGTGFGSKVHIPALQHHSETTVQAVYHRQPDRAAAIAVQFGIPNAYSDLDQLLADPAIEAVTIASPPFLHYPMAWAALSAGKSVLLEKPTTLNVEEARALWKLASSQGLTVTLDFEYRFVPAWQYVAELLAEGVIGQPWLVKLDWLMSSRADASRPWNWYALRSQGGGALGALGSHSFDYLAWLFGPARRLQARLFTAIQERPDATTGELKPVDSDDTDLIQLELAEGVPCQISLSSVFRQGRGHWLEVYGDRGTLILGSSNQKDYVHGFQVWFASAGQALQELTVPQRLAFRQEFADGRLAPFLRVVDHWLADLRHGQMTAPSLKEGLYSQLLIDLCWQSQRSGEWQTVPELNRFLLEHHHHHH	failed
MRLRNWPRWQRWLNRRIPPASSVELNQRRVFILPTRQGGAFGLALLVMLLAAINYQNSLAYGLTFLLLSLGVVTILHTYRNLAGLRLTALGADPVFAGERAGFRVRLESPRRARQAIAVGWPERPLEYADLAGDAAAEVLLFHPTERRGWLRPGRLRVESRFPLGLLVAWSWVDLRQQALVYPRPQAGEPLLAPGAEDAEDQGRALASAGVDDYQGLRAYQPGDSRRRLHWKAFSRGQGLLVKDFAALGGEDLWLEFERLGGDLESRLGRLCHAVLELSARQQPYGLALPGTRLQPASGEAQREACLRALALFGAAR	failed
MSLANLSELPNIGKVLEQDLIKAGIKTPVELKDVGSKEAFLRIWENDSSVCMSELYALEGAVQGIRWHGLDEAKKIELKKFHQSLEGHHHHHH	not failed
MAPQASTRENACRSEMLSASSRGSGWPCQENPDLSIPPLRPIALSRRNGWWSGAAAVKLASGHCTGRWKMSFWYVVDAVAVGIILPWIIATYRLLEAFKRGTGAGLTKWAIYAAVCVPAMLLVMWGIQNLR	failed
MWSCPTLNAPRAAQKWLPVRATPHLCVLHMSRLMLSSTLIDELSYVRKDQLETSALFELIAHRYERHSIAITANEPFSGWSDAMTVAAIDRLVHHSTIIEMNGESYRKRAAVARGASTQNANDEPEDPPNRSSLEHHHHHH	failed
MLKNIDPALNADVLHALRAMGHGDTLVISDTNFPSDSVARQTTVGKVLHIDNVSAARAMKAILSVLPLDTPLQPSVGRMEVMGAPDQLEPVQVEVQQEIDAAEGKSAPMYGIERFAFYEKAKQAYCVITTGETRFYGCFLLTKGVIPPK	not failed
MDKLVKYQELVKKLLTNYASDDVSDQDVEVQLILDTERNHYQWMNVGWQGLNRIYRCVIHFDIKDGKIWLQQNLTDRNPAEELVMMGVPREDIVLGLQAPYKRQYTDYGVA	not failed
AEGTRGRSSTARCSLFGSDFVNTFDGSMYSFAGYCSYLLAGGCQKRSFSIIGDFQNGKRVSLSVYLGEFFDIHLFVNGTVTQGDQRVSMPYASKGLYLETEAGYYKLSGEAYGFVARIDGSGNFQVLLSDRYFNKTCGLCGNFNIFAEDDFMTQEGTLTSDPYDFANSWALSSGEQWCERASPPSSSCNISSGEMQKGLWEQCQLLKSTSVFARCHPLVDPEPFVALCEKTLCECAGGLECACPALLEYARTCAQEGMVLYGWTDHSACSPVCPAGMEYRQCVSPCARTCQSLHINEMCQERCVDGCSCPEGQLLDEGLCVESTECPCVHSGKRYPPGTSLSRDCNTCICRNSQWICSNEECPGECLVTGQSHFKSFDNRYFTFSGICQYLLARDCQDHSFSIVIETVQCADDRDAVCTRSVTVRLPGLHNSLVKLKHGAGVAMDGQDIQLPLLKGDLRIQHTVTASVRLSYGEDLQMDWDGRGRLLVKLSPVYAGKTCGLCGNYNGNQGDDFLTPSGLAEPRVEDFGNAWKLHGDCQDLQKQHSDPCALNPRMTRFSEEACAVLTSPTFEACHRAVSPLPYLRNCRYDVCSCSDGRECLCGALASYAAACAGRGVRVAWREPGRCELNCPKGQVYLQCGTPCNLTCRSLSYPDEECNEACLEGCFCPPGLYMDERGDCVPKAQCPCYYDGEIFQPEDIFSDHHTMCYCEDGFMHCTMSGVPGSLLPDAVLSSPLSHRSKR	failed
MEIHYAAKQDKCLVRPVIRDHTGSQSYRSTTSILTDHLRRNHHSHGAIASRDYLSYSWNSQLRRFSSEGDGNNASEDSRFPLNKDKMGKEKSTVGVEHFDSHAQLGVQDQIEWLNNEKRASESRKESPFLNKRERLKNEFLRRIQPWETIQLSWESFPYYVHEHTKDTLVECVSSHIKQKSMTSKYGARLDSSSGRILLQSVPGTELYRERLVRALARDTQVPLLVLDSSVLAPYDFADDYNEESESDDDIAESDQCTSQSEAEEETDGDNDDTSSSETKIEGTDDEERYLEISKEVLKKLGADIEDIEKRMSEQLYGSSEVSEAAAVDQDDKAKRPLKKGSQFVTCALCYLHQMMSV	failed
MSRDDNGWSKLYPDLLRSIFESLSCLDFHRAGTVCSNWYAVSRSCPLYPWRIVFRGKNSVLFDPIQDKIYTKNLLGIDLSKIHCLASYGNWILIVDPRLDFYLLNVFTRETINLPSLESSLRGDRPFRFIRNDDESGYFLELYGTKFLLTWNDFRFEKTAILWVNGRNGDYVVAWAIKQFYIFSYKKIGNDDDDKRWSITCTQCEDMAYKDNKLYVYTFDHYINILDFSGNSPKEPMEENPYLSHPFSFVDAIYKLRLAVTREGKVLIVLSLVGLDKKICIYKLNLKIGDWEIVESLGDEMLIFGHGVTIRAPDKDISGGGLKSDSICFLYDDYLSDHYLTMKRQPICGVFDLATSTITWHTRLEDLSSKICWFVPGCA	failed
MSLLKIFYVILGFISLGLGLIGIILPILPTTPFLLLTAFCFVKGSDKFDKWFKGTKIYKNHLESFEKNRAMTLKTKLTILLTADIMLLFPLILSKSIHLKIFIVILMMFKFYYFIFRIKTVKAGDVVEQNR	failed
MSPFLRIGLSNFDCGSCQSCQGEAVNPYCAVLVKEYVESENGQMYIQKKPTMYPPWDSTFDAHINKGRVMQIIVKGKNVDLISETTVELYSLAERCRKNNGKTEIWLELKPQGRMLMNARYFLEMSDTKDMNEFETEGFFALHQRRGAIKQAKVHHVKCHEFTATFFPQPTFCSVCHEFVWGLNKQGYQCRQCNAAIHKKCIDKVIAKCTGSAINSRETMFHKERFKIDMP	failed
AQAALEASEEKFAKAFHSSPDSITITEIESGRYVEVNDGFCRLTGFSAREVLGRTAHEIGIWTDTVQREFMIDELRQKGRMHHREMNGRDKKGAPLVLDVSVEFITLNNTACLLMNARDIG	failed
